Assay: soluble on expression in E. coli; label from the status in PepcDB or PDB records

Sequence	soluble on expression in E. coli
SELSQLLNEIRANYEKILTRNQIETVLSTRIQLEEDISKKMDKDEEALKAAQAELKEARRQWHHLQVEIESLHAVERGLENSLHASEQHYQMQLQDLETVIEGLEKELQEVRRGIEKQLQEHEMLLNTKMRLEQEIATYRHLLEKEEIRYYGCIQGGKKDKKPTTSRVGFVLPSAIINEISFTTKVPQKYENENVETVTKQAILNGSIVKESTEAHGTIQTEKVDEVIKEWEGSFFKDNPRLRKKSVSLRFDLHLAATDEGCLETKQDNLPDIEVRLIMRRSCSIPSIKPPSTAN	soluble
MGSDKIHHHHHHMTARLESNAPVQYAFRLDDREVAVNPLIGRPLRLEYLGSIFCTHCGRKTKKSFSQGYCYPCFTRLAQCDSCIVSPEKCHYEQGTCREPEWGERFCMTDHVVYLANSSGVKVGITRASQIPTRWIDQGARQALPILRVATRQQSGLVEDLLRSQVADRTNWRAMLKGEAEPVDLAAVREQLFDQCADGLRELQQRFGLQAIQPVIDLDPLEIAYPVEAYPSKVASLDLEKTPIVEGTLRGIKGQYLILDTGVINIRKYTAYQIAVHH	not soluble
MMDDILKQIKAGEVSGVQFKERILDKYDIACELVAFSNSHGGKLVVGIKDKTGETNALSYSEVQETTNLLSDIASENVVPSILIKIDTVEVEDGNLVVATVKEGLNKPYHDNKGIVWVKNGADKRKVFDNAELAEMMTDCGSFAPDEAGVRDATVNDLDATTIKQFLGNRFERVLDKKGLTGDAFNEASLDMICSAIAKGHDCEKILRNLRFIRPDGTLTVAAMLLFGKYTQRWMPMMTAKCICFAGNSVGSKVFRDKVNDADMEGNLLHQYDTIMDFFTRNLHNVQVGDEFNSMGKLEIPYTSLVEFTVNSLVHRSLNMKAPVRIFIFDNRVEIHSPGALPNGLTIDDIKAGTSMPRNTFLFNNAIYLLPYTGVGSGITRALDEDINVTFMNNDKAQEFVITVWRGESNQVEDLDTGLRHSDTDLDTGLRHSDTDLDTKRVTLTNKEKDIVNFCSVPRTTKEILDRIGVSMHSKNRERYITSLVAAGYLQMTNPDNPTASNQKYKKVNKR	not soluble
MDVDRLMRDLSVEQLENIQQNLEKEMEGKRESLREMVGRRYRDVLEASSEVRHVCSLADKLASDIANTRVGYQSTHVRTGGREEQKAGEHLYAVNYLVSSIGGDSGEPLDDVVALCMVEHLQKQLISNHSSPMIHKNARALTNRIVATRSELEFQNCSTLLDISRSDWATNQLAAIALLQGKDISQLLELYLEKRFEHVTHLIEDSATILNIVDEMKKTLAVVEELFVHGELIHAIHSVCNGQYKCELIREMCADQAYSFEKTINEDMDRVWRHLREKLSGRGAGTLPSQLVGEKCAAWIEKTCAVTHKLVAEVCEYFDNLDQIIDLLQAITASLKQDWPRIGSNRSVYDKLLQTAVVDKAKILLIQMIESIELFAKKRFESTSDGPQTAIFDERTYHPDSQSHIGISTQLYNCVKTLWESLEQTNEKCAQFETICTPMADMATSNALKETMATNVLQLLLRLCELHSDKQEGSARFLARARLALALVHSESTLICKLLDKDSQRITSLNQRLHSIIEKNLG	not soluble
MLVLYLVFKKFLFKPVMKVINAREDMIKQQFDDAKKSQEEADALKASYDEKLESAKTEADEIIVNARNRAQEEHEAALEKTRKETEVMLEKAKADIATEKEKATEAAQADIARLALIAARKIVKTGDAHDAGSSK	not soluble
MSLKMANPKYKRILIKLSGEALAGERGVGIDIQTVQTIAKEIQEVHSLGIEIALVIGGGNLWRGEPAAEAGMDRVQADYTGMLGTVMNALVMADSLQQVGVDTRVQTAIAMQQVAEPYVRGRALRHLEKGRIVIFGAGIGSPYFSTDTTAALRAAEIEADAILMAKNGVDGVYNADPKKDKTAVKFEELTHRDVINKGLRIMDSTASTLSMDNDIDLVVFNMNQSGNIKRVVFGENIGTTVSNNIEEKEEGHHHHHH	soluble
MGSDKIHHHHHHMNKNPEIQFRSPEEIKAYQESRLAEELLYLQNHSRFYQHLFQAYHIDIQQIKTIEDLQQIPVTTKTDLQLHNEDFICVSRDEIIDYVTTSGTLGDPVTFVLTSEDLDRLAYNEYLSFTTTGCSRQDILQLMTTIDRRFMAGLAYYMGARELGMGVARVGNGIPELQWDTIRRIHPTCGMVVPSFLIKLIEFAEKNHIDYHHCSMQKCVCIGEALRNPDFTLNTLGKRIHEKWDSLQLYSTYASTEMQSSFTECNEFHGGHLQPELIIVEFLDDNNQPVKEGEAGEVTITTLGVRGMPLLRFKTGDICYHYTEPCACGRNTIRLSSILGRKGQMIKYKGTTLYPPALFDILDNIPHIKNYIVEVYTNELGTDEILIRIGSENRSEAFAKEIKDLFRSKVRVAPSINFESAEYIAKIQMPPMSRKIVKFIDLR	not soluble
NQNQTQHKQRPQATAEQIRLAQMISDHNDADFEEKVKQLIDITGKNQDECVIALHDCNGDVNRAINVLLEGNPDTHSWEMVGKKKGVSGQK	soluble
MTPHPRLSIGLPVYNGEEYLAESLDALLGQTYENFELVISDNASTDGTRDICRRYAAQDSRIRYIRLPRNIGAAPNHNYVFTECRGELFKWASHDDLYARDLLRSCVAALDERPEVVLAHAGQAVIDGDGKVKVPYEYGLATDSPRAPERFRSLLFEPGGDDFYGVMRSAMLRRVKPHDSYHHADRTFVAEITLHGPFHQVPELLYFRRDHPTRAERANPSKRSRCVNLDPRRAGPLHPTPRLLAEYVWGFASAIGRAPLSSADRRACHRHLAAWLTSRVRPGVGERVEDRAPVDPDRLTVSVDDLVAGREGRQALEHHHHHH	not soluble
MSYLSAIENQENMVVKQEIKIEEEDDDYPLSTIDMAVQALIRNPHHNVDYICGVMIFGGSKNQFNELLNPVVVAQMSKQRKQKKVPVKNPAGEAKRGRGRPRKQSSEEKVQIPKVVVKFEPKKRGRPAGAAKWSQEVAVVLQKQPQRKRGRPLKIAKKIEPVFHQKKESKQNSEEKALIQQEAVKGEPKNRGRPCGAAERSREVVKKLQKQPPRKRGRPLKIAKNMEPEINQKKDTKQVHVCPICTLASKNGTCLCTKCQKWVHLKCTGIRSKQWNSQFQCKNCTC	not soluble
ASMTGNECPELQPPVHGKIEPSQAKYFFKDQVLVSCDTGYKVLKDNVEMDTFQIECLKDGTWSNKIPTCKIVDCRAPGELEHGLITFSTRNNLTTYKSEIKYSCQEPYYKMLNNNTGIYTCSAQGVWMNKVLGRSLPTCLPVCGLPKFSRKLMAR	soluble
MGSDKIHHHHHHMRMDHQLAERWIAPYSHVLDLGCGNGELLAHLQQNRGVTGYGLEIDEDKINEAIANGLSIVEQDLNDGLARFADNSFDTVVMARALQAVKSPDVLLLDMLRVAREAVITFPNFAHWQNRIHLGLKGIMPVSEALPYEWYNTPNIHLCTFKDFEKLCAQHDIHIINRFAVSDSEKGHSSLMTALIRRAPNLLADVAIYRVSKQKPE	not soluble
MAHHHHHHMTQLHSVASLDYGDGRTCVCRICECGKHQCPGLRVPFVGETTYRDEYVGKSIERERPRKARQTVFPSKAEPGHFKTTKQEAADLLKGKDLRPAESYKPREAAAAPLPFEGTTTNRADFPGWMPDYNRTKRKEDPLPRLPGTYVTTKGAMEEPVRDLAEQGRLPKPPKSFKADDTLQNSLPFDGITNYTAEYQPKEVPMTRSAARDVQPVALPENRDFQTTVSAAYQVPPMHMRHDCPAAFVPMRPASRDGHIKLSVYNIPSGDTMY	not soluble
MASDWRRQSTSRGIPNEGQNDEKGKPLIGRSFLLEIENRILRTNVAEGLHISGATIIDSFDDASPQCVISDHPMAQKLEKAKKDDPLFKNEKMLKIMPALLRQAVNRNIKVRTPERFLNQMNTWLDRQGKTTSATTSNSTIRGKPSFGRENSAKIERTTPRLVPRMPRVSSDQTSSRPKEERCFLRIDVPGKRPEIRNVSKESFSIVYSGRDTGFSIFKAAESSLVERRQREYDSFLKGKYEPSKKTFKFDERDNYCQFCQKTILGDRKDHERTDEHRNKARTQGITQTMERIVLNARLRAERQEAALKRNQRKSRESVMFVEKSKRANVEYEYGENEIKANWLMLKANTVEKTTEKTSILSPRRRQKRMRSLSSQGDI	not soluble
SLTVFQPLVPPDWKMNLREGSLYAQVAFSAAAGQGFEAGGHGVLKGGSAWMPDNQINGVDFVLPFRFSDGHWQLGIRRPVSLRIGEIVNQVTARNLTADLQGTWPWSEANPLQLSDVSVDLLGGKLTLLQLRMPQRDPALIRLQHISSSELTSAVKVKQFAMSGAVSGALPLWLENNQWIIHDGWLRNDGPMTLRLDKDTADALVADNVSAGAAINWLRYMEISRSWTQINLDNLGVLTLKASINGTSRVEGKSSTVHLNYAHEENIFDLWRSLRFGDNLQAWLEQNATL	not soluble
MGSDKIHHHHHHMSTIIQNTLAPKVQNQLIHHLPALEQAELLSQAKLVQLNFADLLCQPGESYQYVYFPLTAFISLIAKLPKHPALEMGLIGYEGMLGATTLLSTRQVPSEAIIQGSGKAWRIPIATFEDLLAQSSSLRQILETYLYQLLCQLSQNAVCAHFHSVESRLARWLLMSHDRIQTNELFLTHQFLSDMLGVRRSSITEAAGELQASGCISYNRGRLYILDRQGLLARCCSCYHLMRT	not soluble
MGSDKIHHHHHHATASESSKYIGLQLYSLRDLVKEEGIQKVLETAAKMGYKNLETASYDNGKIYGLAPAEFKKMVNDLGMKCTSAHLGQAFTKEKEAEVMSWWDQAIDAHNELGVKYMVQPWMPVNDKTTLDDLKMYCDYFNTVGYKTAAASIAFGYHNHDFEFRKIDDQLIYDFLLDNVSPNHVFFEMDVYWVMMGGGDPVAYLKNRPSQFKAIHIKDEKEIGASGKMNFKPIFDQMYANNVKDWYVEVEQYTNNDPVASVQQSYDFLNKADYVK	not soluble
MSLSINSREVLAEKVKNAVNNQPVTDMHTHLFSPNFGEILLWDIDELLTYHYLVAEVMRWTDVSIEAFWAMSKREQADLIWEELFIKRSPVSEACRGVLTCLQGLGLDPATRDLQVYREYFAKKTSEEQVDTVLQLANVSDVVMTNDPFDDNERISWLEGKQPDSRFHAALRLDPLLNEYEQTKHRLRDWGYKVNDEWNEGSIQEVKRFLTDWIERMDPVYMAVSLPPTFSFPEESNRGRIIRDCLLPVAEKHNIPFAMMIGVKKRVHPALGDAGDFVGKASMDGVEHLLREYPNNKFLVTMLSRENQHELVVLARKFSNLMIFGCWWFMNNPEIINEMTRMRMEMLGTSFIPQHSDARVLEQLIYKWHHSKSIIAEVLIDKYDDILQAGWEVTEEEIKRDVADLFSRNFWRFVGRNDHVTSVKVEQQTEGHHHHHH	soluble
MLPLPWWMLGVGPEEEADESSDYDMVDGHSIEVQESVPTTPVSVFHTPSQSSIIDISDQLVDLPTFLKVAKRRSSTVLETATPAKTPKIQLSERRRKFQRNDTEVMIKTGEPVVDCDETLGLNWLFDTDYPRDAGSGDLLNSTFRIDHRNHGEGTSQITESPKNRDFPLFFSSFDDTTVLFNTTIAGDIDVNERNQASGDWIFRKDKSPTNDPIENDQETDEKTKSELGDGGEIVFKEPVQSTKKTRGRKRGTSVRIEKLSTSRRTSAKKKEEKQKETETFDADKNENPSTPTAPPTMTRRHTPSRKAKTNRTFRL	not soluble
MRKLSTRPLPLGDGFFDSSSDSSESELSDKDDEDRYSDSTVSTLTSQDRRDTQGCQYPRSSELPISESPAPRARRARKQRSKRKSVKPPNTSSDDSSDDSDDSSSSSSSDDSVSSKSSTNSSDSSPCRCRDGLAEWEQRHGRRWHPYGRNGTWEPYRNRRRGIYDCENSPRETYSNGA	not soluble
